For this assay, the target named is T1, Activin A (endogenous, mouse, released after LPS) (mouse) (UniProt Q04998).
T1 sequence (looked up): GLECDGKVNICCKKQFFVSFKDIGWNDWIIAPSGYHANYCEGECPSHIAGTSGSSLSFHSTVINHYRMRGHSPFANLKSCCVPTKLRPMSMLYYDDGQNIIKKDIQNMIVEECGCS
Description: cell-based or functional assay.

As to “Recombinant human follistatin-288 (from UniProt P19883 30-317)”, the IL-6 peak concentration in mice given 1 µg rhfollistatin-288 before LPS, against LPS alone was found to be 2 fold; the IL-6 release in mice given 0.5 µg follistatin before LPS (LPS alone ≈20000 pg/ml) amounted to 30000 pg/mL; the IL-6 release in mice given 0.5 µg follistatin before LPS, against LPS alone stood at 50%; the IL-6 release in mice given 1 µg follistatin before LPS (LPS alone ≈20000 pg/ml) was determined as 50000 pg/mL. Besides, the IL-6 release in mice given 1 µg follistatin before LPS, against LPS alone is 250%; the IL-6 release in mice given 2 µg follistatin before LPS (LPS alone ≈20000 pg/ml) was 20000 pg/mL; the TNFα release in plasma of mice given 1 µg rhfollistatin-288 30 min before LPS (% suppression) stood at 50.
